Experimental data: CN109666072A (ZONHON BIOPHARMA INST INC, dated 2019)

B1: 单链抗体BM17 (anti-human β2-microglobulin scFv BM17) (scFv)
scFv: QVTLKESGPGILQPSQTLSLTCSFSGFSLSTSGMGVSWIRQPSGKGLEWLAHIYWDDDKRYNPSLKSRLTISKDTSSNQVFLKITSVDTADTATYYCARVYYGYDGGFFDYWGQGTTLTVSSGGGGSGGGGSGGGGSQIVLTQSPAIMSASPGEKVTITCSASSSVSYMHWFQQKPGTSPKLWIYSTSNLASGVPARFSGSGSGTSYSLTISRMEAEDAATYYCHQRSSYPLTFGAGTKLEIK
notes: expressed in Pichia pastoris X-33; HRP-labelled in the Western blot; used as gold-labelled or coating antibody in the colloidal gold card; also called BM17-HRP; BM17-scFv
B2: 杂交瘤细胞株B17所表达抗体 (antibody expressed by hybridoma cell line B17) (antibody, V domains shown)
VH: not shown
VL: QIVLTQSPAIMSASPGEKVTITCSASSSVSYMHWFQQKPGTSPKLWIYSTSNLASGVPARFSGSGSGTSYSLTISRMEAEDAATYYCHQRSSYPLTFGAGTKLEIK
notes: Mouse monoclonal antibody tested as hybridoma culture supernatant and detected with HRP goat anti-mouse IgG
B3: 杂交瘤细胞株B12所表达抗体 (antibody expressed by hybridoma cell line B12) (antibody, V domains shown)
VH: DVKLVESGGGLVKPGGSLKLSCAASGFTFGSYTMSWVRQTPEKRLEWVAAISSGGSFTYYLDSVKGRFTISRDSAKTTLYLQMGSLKSEDTAMYYCSREGGPYYGSHYYALDYWGQGTSVTVSS
VL: DIQMTQSTSSLSASLGDGVTISCRASQDITNYLNWYQQRPDGAVRLLIYYTSRLHSGVPSRFSGSGSGTNYSLTISNLEQEDIATYFCQQGNTLPPTFGGGTKLEIK
notes: as for B2
B4: 单链抗体BM12 (anti-human β2-microglobulin scFv BM12) (scFv)
scFv: DVKLVESGGGLVKPGGSLKLSCAASGFTFGSYTMSWVRQTPEKRLEWVAAISSGGSFTYYLDSVKGRFTISRDSAKTTLYLQMGSLKSEDTAMYYCSREGGPYYGSHYYALDYWGQGTSVTVSSGGGGSGGGGSGGGGSDIQMTQSTSSLSASLGDGVTISCRASQDITNYLNWYQQRPDGAVRLLIYYTSRLHSGVPSRFSGSGSGTNYSLTISNLEQEDIATYFCQQGNTLPPTFGGGTKLEIK
notes: expressed in Pichia pastoris X-33; HRP-labelled in the Western blot; used as coating or gold-labelled antibody in the colloidal gold card; also called BM12-HRP; BM12-scFv

Assays:
[1] = target: T1, 重组人β2-微球蛋白 (recombinant human β2-microglobulin, expressed in E. coli) (human, UniProt P61769 21-119); experiment: Western blot, HRP-labelled scFv on recombinant β2-MG
T1 construct: The same in-house recombinant protein serves as immunogen, ELISA coat and Western blot sample; also called β2-MG; 人β2-MG
T1 sequence (P61769 21-119 limits assumed): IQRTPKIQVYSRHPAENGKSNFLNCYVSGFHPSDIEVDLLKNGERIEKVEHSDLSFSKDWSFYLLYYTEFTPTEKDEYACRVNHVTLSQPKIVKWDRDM

[2] = target: T1, 重组人β2-微球蛋白 (recombinant human …); experiment: indirect ELISA, hybridoma supernatant on coated recombinant human β2-MG (1 μg/mL), HRP goat anti-mouse IgG

Binder	binding result [1]	binding result [2]
B1	binds	
B2		binds
B3		binds
B4	binds	
